Consider 35 substances from patent US20260000597A1 (priority 2018, published 2026).

Chain of AchR (P02708 21-457): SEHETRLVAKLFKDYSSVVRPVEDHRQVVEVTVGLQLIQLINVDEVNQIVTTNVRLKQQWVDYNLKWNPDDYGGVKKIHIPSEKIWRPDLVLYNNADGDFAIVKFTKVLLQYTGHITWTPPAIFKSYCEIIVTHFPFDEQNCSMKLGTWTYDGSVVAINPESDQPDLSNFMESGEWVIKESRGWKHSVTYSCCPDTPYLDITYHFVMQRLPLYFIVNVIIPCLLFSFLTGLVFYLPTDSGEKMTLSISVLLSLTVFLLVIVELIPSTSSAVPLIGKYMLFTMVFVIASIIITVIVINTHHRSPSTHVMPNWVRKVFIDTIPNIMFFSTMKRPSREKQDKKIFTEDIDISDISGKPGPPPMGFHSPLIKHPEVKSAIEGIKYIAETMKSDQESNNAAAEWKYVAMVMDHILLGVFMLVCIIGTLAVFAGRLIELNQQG

The first test addresses AchR (Homo sapiens, UniProt P02708). Put plainly: ELISA of screened peptide phages on AchR versus streptavidin (OD450). The format is binding. The note with it: ELISA of selected 11-mer (L2) peptide phages on AchR, absorbance at 450 nm; Spep-2 positive control. Put shortly:
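Phage supernatants from 4th–5th round plaques, in 2% BSA, applied 1 h at 30 °C to wells coated with 5 μg/ml AchR or streptavidin. Bound phage detected with HRP anti-M13 and TMB at OD450; value given as AchR/streptavidin signal ratio.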
On the technique in general: ELISA stands for enzyme-linked immunosorbent assay.
Substance “L2-39 (LMTKNRRNSFR; AchR binding peptide) [Peptide L2-39]” showed an OD of 0.669. In the case of “L2-83 (HQQKCKKTTTK; AchR binding peptide) [Peptide L2-83]”, the OD was determined as 0.65. For the substance “L2-4 (ECYRNRKAYCR; AchR binding peptide) [Peptide L2-4]”, the OD worked out at 0.757. For “L2-162 (NCDRTRKHWAR; AchR binding peptide) [Peptide L2-162]”, the OD was 0.584. “L2-94 (NPGKTKRWLQR; AchR binding peptide) [Peptide L2-94]” came in with an OD of 0.642. Regarding “L2-178 (VPYRHRRMQFK; AchR binding peptide) [Peptide L2-178]”, the OD was found to be 0.718. The same measure, in the same setting: the value for “L2-199 (EICKNRKPANR; AchR binding peptide) [Peptide L2-199]” was 0.716; that for “L2-81 (TMWRQRKMSCK; AchR binding peptide) [Peptide L2-81]” was 0.705; that for “L2-188 (CLWRLRKDNGR; AchR binding peptide) [Peptide L2-188]” was 0.73. In the case of “L2-156 (YGLRMRKWYMK; AchR binding peptide) [Peptide L2-156]”, the OD was 0.683. The substance “L2-123 (HDTKCKKMYAK; AchR binding peptide) [Peptide L2-123]” gave an OD of 0.473. The substance “L2-31 (NNSRSKRFMNR; AchR binding peptide) [Peptide L2-31]” registered an OD of 0.737. With “L2-7 (WQMKTKKEIWK; AchR binding peptide) [Peptide L2-7]”, the OD is listed as 0.753. Still for that read-out and setting: the same measure for “L2-131 (MTLKHRRVYIK; AchR binding peptide) [Peptide L2-131]”: 0.462; for “L2-130 (GYDRARKGTLR; AchR binding peptide) [Peptide L2-130]”: 0.64; for “L2-147 (TWCKHKKLDMK; AchR binding peptide) [Peptide L2-147]”: 0.641.

The same test, now with this note: ELISA of selected 14-mer (L3) peptide phages on AchR, absorbance at 450 nm; Spep-2 positive control.
Regarding “L3-47 (LYEKYKKHNNREDD; AchR binding peptide) [Peptide L3-47]”, the OD turned out to be 0.558. The substance “L3-18 (EYQKCKKPSFRLTM; AchR binding peptide) [Peptide L3-18]” showed an OD of 0.806. For the substance “L3-32 (CATRGKKVFSKRTM; AchR binding peptide) [Peptide L3-32]”, the OD was 0.845. “L3-129 (IHPRYKRHQARSCC; AchR binding peptide) [Peptide L3-129]” yielded an OD of 0.606. The same measure, in the same setting: the value for “L3-12 (DPPKKRKSLLRRVS; AchR binding peptide) [Peptide L3-12]” was 0.882; that for “L3-150 (YLSRTKRWLARYVE; AchR binding peptide) [Peptide L3-150]” was 0.518. “L3-185 (VLPKERRWLTRFLI; AchR binding peptide) [Peptide L3-185]” gave an OD of 0.794. Regarding “L3-43 (FTHKNRRDSLRVWM; AchR binding peptide) [Peptide L3-43]”, the OD turned out to be 0.93.

As for “L3-171 (LDTKNRRGASKWDY; AchR binding peptide) [Peptide L3-171]”, the OD was 0.629.

Still in this test, the particulars now being: phage ELISA, absorbance at 450 nm, 5 μg/ml AchR; 4th and 5th round biopanning phages.
Turning to KGKKLSQR [Peptide L1-75], the OD was 0.581. KCKKDNDK [Peptide L1-184]: the OD worked out at 0.593.

RGRRGTMR [Peptide L1-93] registered an OD of 0.616.

For RHRRANFR [Peptide L1-147], the OD is reported as 0.415.

For KWRREGFK [Peptide L1-12], the OD worked out at 0.691. With RFRKMIPK [Peptide L1-115], the OD amounted to 0.451.

Substance RFKRLCMK [Peptide L1-15] yielded an OD of 0.67. Same read-out and setting: the same measure for “GGGRKKRRQRRRGG [Peptide L3-201, reference compound]”: 0.315; for KNRKNLYR [Peptide L1-36]: 0.553; for RIRKITWR [Peptide L1-194]: 0.636.
